Numbering of substitutions follows the chain as printed. Blank lines part the entries; values can stand above or below the binder they belong to.
Assays:
[1] = target: rat relaxin family peptide receptor 2 (RXFP2) (rat) (UniProt Q5ECL0)
[2] = target: human relaxin family peptide receptor 2 (RXFP2) (human) (UniProt Q8WXD0)
[3] = target: rat relaxin family peptide receptor 2 (RXFP2) (rat) (UniProt Q5ECL0); remark: listed apart in the source

Sequence of human relaxin family peptide receptor 2 (RXFP2) (human) (Q8WXD0 whole entry): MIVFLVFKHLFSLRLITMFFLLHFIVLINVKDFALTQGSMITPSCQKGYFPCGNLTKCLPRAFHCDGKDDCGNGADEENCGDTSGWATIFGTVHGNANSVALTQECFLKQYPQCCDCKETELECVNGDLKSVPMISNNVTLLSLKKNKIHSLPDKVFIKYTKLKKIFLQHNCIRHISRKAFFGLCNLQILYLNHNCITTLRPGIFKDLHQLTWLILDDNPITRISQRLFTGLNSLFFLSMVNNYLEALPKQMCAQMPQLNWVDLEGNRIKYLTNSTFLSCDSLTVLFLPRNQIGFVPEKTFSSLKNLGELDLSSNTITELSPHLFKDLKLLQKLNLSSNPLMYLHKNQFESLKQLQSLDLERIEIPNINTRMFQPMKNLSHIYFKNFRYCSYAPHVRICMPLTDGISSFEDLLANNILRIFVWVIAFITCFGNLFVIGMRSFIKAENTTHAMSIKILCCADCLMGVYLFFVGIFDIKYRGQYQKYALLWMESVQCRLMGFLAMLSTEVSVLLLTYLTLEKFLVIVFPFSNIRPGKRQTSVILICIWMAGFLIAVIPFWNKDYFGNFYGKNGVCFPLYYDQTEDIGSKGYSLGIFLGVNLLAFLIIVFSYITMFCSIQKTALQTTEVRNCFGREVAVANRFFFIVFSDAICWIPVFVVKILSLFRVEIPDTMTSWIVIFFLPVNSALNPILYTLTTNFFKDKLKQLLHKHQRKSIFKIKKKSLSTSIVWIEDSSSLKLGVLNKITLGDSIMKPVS
Sequence of rat relaxin family peptide receptor 2 (RXFP2) (rat) (Q5ECL0 entry or part of it): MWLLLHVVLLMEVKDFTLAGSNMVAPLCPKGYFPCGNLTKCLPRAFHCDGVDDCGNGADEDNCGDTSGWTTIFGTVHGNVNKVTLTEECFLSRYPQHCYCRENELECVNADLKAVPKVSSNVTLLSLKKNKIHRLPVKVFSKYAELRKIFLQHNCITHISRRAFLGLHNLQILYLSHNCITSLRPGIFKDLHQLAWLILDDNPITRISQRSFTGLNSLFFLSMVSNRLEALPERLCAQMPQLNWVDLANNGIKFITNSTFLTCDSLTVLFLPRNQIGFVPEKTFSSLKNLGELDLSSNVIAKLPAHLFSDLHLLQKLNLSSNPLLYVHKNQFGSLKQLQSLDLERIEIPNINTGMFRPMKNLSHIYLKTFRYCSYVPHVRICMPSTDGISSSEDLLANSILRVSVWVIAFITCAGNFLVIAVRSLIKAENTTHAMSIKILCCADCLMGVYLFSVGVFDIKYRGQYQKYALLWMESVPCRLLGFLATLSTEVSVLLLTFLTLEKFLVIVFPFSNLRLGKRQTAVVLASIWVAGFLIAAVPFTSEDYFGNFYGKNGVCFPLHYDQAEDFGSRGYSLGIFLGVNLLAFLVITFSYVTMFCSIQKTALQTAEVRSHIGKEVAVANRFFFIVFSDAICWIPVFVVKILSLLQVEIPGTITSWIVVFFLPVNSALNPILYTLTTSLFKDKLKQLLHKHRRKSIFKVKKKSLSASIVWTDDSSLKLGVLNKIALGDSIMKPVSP

- % Max Response, INSL3 (EC80)-stimulated cAMP in HEK293 stably expressing rat RXFP2 [1]: 69.7%
- IC50, INSL3 (EC80)-stimulated cAMP in HEK293 stably expressing rat RXFP2 [1]: 150 nM
- IC50, INSL3 (EC80)-stimulated cAMP in HEK293 stably expressing human RXFP2 [2]: 218 nM
B1: RXFP2 mAb 4H1 (antibody, V domains shown)
VH: QIQLVQSGPELKKPGETVKISCKTSGYTFTKYPMHWVKQAPGEGLKWMGWINTYSGLPTFADDFKGRFAFSLETSANTADLQINNLKNEDMATYFCAREGKKLSGYFDYWGQGTTLTVSS
VL: DIKMTQSPSSMYASLGERVTITCKASQDINSYLTWFQQKPGQSPKTLIYRANRFVDGVPSRFSGSGSGQDYSLTITSLEYEDMGIYYCLQYDEFPYTFGGGTQLEIK

- IC50, INSL3-induced cortisol release (ELISA) from H295R stably expressing rat RXFP2 [3]: 0.21 nM
- % Max Response, INSL3 (EC80)-stimulated cAMP in HEK293 stably expressing rat RXFP2 [1]: 76.1%
- IC50, INSL3 (EC80)-stimulated cAMP in HEK293 stably expressing rat RXFP2 [1]: 19.1 nM
- IC50, INSL3-stimulated CYP11B1 mRNA in H295R stably expressing rat RXFP2 [1]: 0.32 nM
- IC50, INSL3-stimulated CYP11B2 mRNA in H295R stably expressing rat RXFP2 [1]: 0.1 nM
- IC50, INSL3 (EC80)-stimulated cAMP in HEK293 stably expressing human RXFP2 [2]: 405 nM
B2: RXFP2 mAb 1F2 (antibody, V domains shown)
VH: QVQLKQSGPGLVQPSQSLSITCTVSGFSLTAYGVNWVRQSPGKGLEWLGVIWSGGNTDYNAPFISRLSITKDNSKSQVFFKMNSLEADDTAIYYCARAKGYYAMDYWGQGTSVTVSS
VL: DIQMTQSPASLSVSVGESVTITCRATENIYSNLVWYQQKQGQSPQLLVYAVTSLADGVPSRFSGSGSGTQYSLKINSLQSEDFGTYYCQHFWGTPYTFGGGTKLEIK

- % Max Response, INSL3 (EC80)-stimulated cAMP in HEK293 stably expressing rat RXFP2 [1]: 83.3%
- IC50, INSL3 (EC80)-stimulated cAMP in HEK293 stably expressing rat RXFP2 [1]: 16.1 nM
- IC50, INSL3-stimulated CYP11B1 mRNA in H295R stably expressing rat RXFP2 [1]: 0.33 nM
- IC50, INSL3-stimulated CYP11B2 mRNA in H295R stably expressing rat RXFP2 [1]: 0.2 nM
B3: RXFP2 mAb 3G4 (antibody, V domains shown)
VH: QVQLKESGPGLVAPSQSLSITCTVSGFSLTSYGVSWVRQPPGKGLEWLGVIWGDGSTNYHSALISRLSISKDNSKSQVFLKLNSLQTDDTATYYCAKSLGYYAMDYWGQGTSVTVSS
VL: B2 VL with S18T, T26S, Q42K, V51A, S53N, D56E, T85S, T94P, Y96W

- % Max Response, INSL3 (EC80)-stimulated cAMP in HEK293 stably expressing rat RXFP2 [1]: 86.6%
- IC50, INSL3 (EC80)-stimulated cAMP in HEK293 stably expressing rat RXFP2 [1]: 21.4 nM
- IC50, INSL3-stimulated CYP11B1 mRNA in H295R stably expressing rat RXFP2 [1]: 0.23 nM
- IC50, INSL3-stimulated CYP11B2 mRNA in H295R stably expressing rat RXFP2 [1]: 0.17 nM
- IC50, INSL3 (EC80)-stimulated cAMP in HEK293 stably expressing human RXFP2 [2]: 116 nM
B4: RXFP2 mAb 4B8 (antibody, V domains shown)
VH: QVQLKQSGPGLVQPSQSLSITCTVSGFSLSRYGVHWVRQSPGKGLEWLGVIWSGGSTEYNAVFKSRLSISKDNSKSQVFFKMNSLQANDTAIYYCVRADGYYAMEYWGQGTSVTVSS
VL: B2 VL with S18T, T26S, V34A, Q42K, S53N, T85N

- % Max Response, INSL3 (EC80)-stimulated cAMP in HEK293 stably expressing rat RXFP2 [1]: 69.7%
- IC50, INSL3 (EC80)-stimulated cAMP in HEK293 stably expressing rat RXFP2 [1]: 19.9 nM
- IC50, INSL3-stimulated CYP11B1 mRNA in H295R stably expressing rat RXFP2 [1]: 0.27 nM
- IC50, INSL3-stimulated CYP11B2 mRNA in H295R stably expressing rat RXFP2 [1]: 0.23 nM
- IC50, INSL3 (EC80)-stimulated cAMP in HEK293 stably expressing human RXFP2 [2]: 589 nM
B5: RXFP2 mAb 3F1 (antibody, V domains shown)
VH: QVQLKESGPGLVAPSQSLSITCTVSGFSLTDYGVSWIRQPPGKGLEWLGVIWGGGSTDYNPALKSRLSISKDNSKSQVFLKMNSLQADDTAMYYCVKHEGYYAMDYWGQGTSVTVSS
VL: B2 VL with S18T, T26S, V34A, Q42K, Q45H, S53N, T85S

- % Max Response, INSL3 (EC80)-stimulated cAMP in HEK293 stably expressing rat RXFP2 [1]: 89.2%
- IC50, INSL3 (EC80)-stimulated cAMP in HEK293 stably expressing rat RXFP2 [1]: 14.2 nM
- IC50, INSL3-stimulated CYP11B1 mRNA in H295R stably expressing rat RXFP2 [1]: 0.21 nM
- IC50, INSL3-stimulated CYP11B2 mRNA in H295R stably expressing rat RXFP2 [1]: 0.15 nM
B6: RXFP2 mAb 4H5 (antibody, V domains shown)
VH: QVQLKQSGPGLVQPSQSLSITCTVSGFSLTNYGVHWVRQSPGKGLEWLGVIWRDGNTDYNAAFMSRLSITKDNSKSQVFFEMNSLQVDDTAIYYCCRGDGYYAMGYWGQGTSVTVSS
VL: B2 VL with S18T, T26S, V34A, K39R, Q42R, V51A, S53N, T85N, T94S, Y96R

- IC50, INSL3-induced aldosterone release (ELISA) from H295R stably expressing rat RXFP2 [3]: 0.05 nM
- IC50, INSL3-induced cortisol release (ELISA) from H295R stably expressing rat RXFP2 [3]: 0.17 nM
- % Max Response, INSL3 (EC80)-stimulated cAMP in HEK293 stably expressing rat RXFP2 [1]: 86.8%
- IC50, INSL3 (EC80)-stimulated cAMP in HEK293 stably expressing rat RXFP2 [1]: 21 nM
- IC50, INSL3-stimulated CYP11B1 mRNA in H295R stably expressing rat RXFP2 [1]: 0.14 nM
- IC50, INSL3-stimulated CYP11B2 mRNA in H295R stably expressing rat RXFP2 [1]: 0.11 nM
- IC50, INSL3 (EC80)-stimulated cAMP in HEK293 stably expressing human RXFP2 [2]: > 1000 nM
B7: RXFP2 mAb 2D4 (antibody, V domains shown)
VH: QVQLKESGPGLVAPSQSLSITCTVSGFSLTTYGISWVRQPPGKGLEWLGVIWTGGGTNYNSALKSRLSISKDNSKSQVFLKMNSLQTDDTARYYCARTEGYYVMDYWGQGTSVTVSS
VL: B2 VL with S18T, T26S, Q42K, V51A, S53N, S77N, T94P, Y96W

- % Max Response, INSL3 (EC80)-stimulated cAMP in HEK293 stably expressing rat RXFP2 [1]: 85.7%
- IC50, INSL3 (EC80)-stimulated cAMP in HEK293 stably expressing rat RXFP2 [1]: 18.9 nM
- IC50, INSL3-stimulated CYP11B1 mRNA in H295R stably expressing rat RXFP2 [1]: 0.26 nM
- IC50, INSL3-stimulated CYP11B2 mRNA in H295R stably expressing rat RXFP2 [1]: 0.13 nM
B8: RXFP2 mAb 4H2 (antibody, V domains shown)
VH: QVQLRQSGPSLVQPSQSLSITCTVSGFSLTNYGVHWVRQSPGKGLEWLGVIWRGGNTDHNAAFMSRLSITKDNSESQVFFKMNSLQVDDTAIYYCAKAEGYYALDYWGQGTSVTVYS
VL: B2 VL with S18T, T26S, V34A, Q42K, S53N, T85S, Y96W
